Experimental data as given in US20240239860.

Target: T1, thio GLP-1 (GLP-1 7-36 with a thioamide at the Ala8-Glu9 scissile bond)
T1 chain: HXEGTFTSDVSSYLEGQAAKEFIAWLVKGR

B1: dipeptidyl peptidase 4 (DPP-4) (protein)
chain: SRKTYTLTDYLKNTYRLKLYSLRWISDHEYLYKQENNILVFNAEYGNSSVFLENSTFDEFGHSINDYSISPDGQFILLEYNYVKQWRHSYTASYDIYDLNKRQLITEERIPNNTQWVTWSPVGHKLAYVWNNDIYVKIEPNLPSYRITWTGKEDIIYNGITDWVYEEEVFSAYSALWWSPNGTFLAYAQFNDTEVPLIEYSFYSDESLQYPKTVRVPYPKAGAVNPTVKFFVVNTDSLSSVTNATSIQITAPASMLIGDHYLCDVTWATQERISLQWLRRIQNYSVMDICDYDESSGRWNCLVARQHIEMSTTGWVGRFRPSEPHFTLDGNSFYKIISNEEGYRHICYFQIDKKDCTFITKGTWEVIGIEALTSDYLYYISNEYKGMPGGRNLYKIQLSDYTKVTCLSCELNPERCQYYSVSFSKEAKYYQLRCSGPGLPLYTLHSSVNDKGLRVLEDNSALDKMLQNVQMPSKKLDFIILNETKFWYQMILPPHFDKSKKYPLLLDVYAGPCSQKADTVFRLNWATYLASTENIIVASFDGRGSGYQGDKIMHAINRRLGTFEVEDQIEAARQFSKMGFVDNKRIAIWGWSYGGYVTSMVLGSGSGVFKCGIAVAPVSRWEYYDSVYTERYMGLPTPEDNLDHYRNSTVMSRAENFKQVEYLLIHGTADDNVHFQQSAQISKALVDVGVDFQAMWYTDEDHGIASSTAHQHIYTHMSHFIKQCFSLP
- cleavage of Gly-Pro-pNA substrate by DPP-4: did not inhibit cleavage of Gly-Pro-pNA substrate at 100 µM
